Measured values taken from US20220289795, “EFFICIENT METHOD FOR PREPARING PPR PROTEIN AND USE OF THE SAME” (EditForce, Inc., published 2022).

What was measured:
v3.1_PPR22 = biological target: T1, v3.1_PPR22 (Artificial Sequence); assay: ELONA; RPB-ELISA; conditions: tags: luciferase fusion; label: 5'-biotin
T1 chain: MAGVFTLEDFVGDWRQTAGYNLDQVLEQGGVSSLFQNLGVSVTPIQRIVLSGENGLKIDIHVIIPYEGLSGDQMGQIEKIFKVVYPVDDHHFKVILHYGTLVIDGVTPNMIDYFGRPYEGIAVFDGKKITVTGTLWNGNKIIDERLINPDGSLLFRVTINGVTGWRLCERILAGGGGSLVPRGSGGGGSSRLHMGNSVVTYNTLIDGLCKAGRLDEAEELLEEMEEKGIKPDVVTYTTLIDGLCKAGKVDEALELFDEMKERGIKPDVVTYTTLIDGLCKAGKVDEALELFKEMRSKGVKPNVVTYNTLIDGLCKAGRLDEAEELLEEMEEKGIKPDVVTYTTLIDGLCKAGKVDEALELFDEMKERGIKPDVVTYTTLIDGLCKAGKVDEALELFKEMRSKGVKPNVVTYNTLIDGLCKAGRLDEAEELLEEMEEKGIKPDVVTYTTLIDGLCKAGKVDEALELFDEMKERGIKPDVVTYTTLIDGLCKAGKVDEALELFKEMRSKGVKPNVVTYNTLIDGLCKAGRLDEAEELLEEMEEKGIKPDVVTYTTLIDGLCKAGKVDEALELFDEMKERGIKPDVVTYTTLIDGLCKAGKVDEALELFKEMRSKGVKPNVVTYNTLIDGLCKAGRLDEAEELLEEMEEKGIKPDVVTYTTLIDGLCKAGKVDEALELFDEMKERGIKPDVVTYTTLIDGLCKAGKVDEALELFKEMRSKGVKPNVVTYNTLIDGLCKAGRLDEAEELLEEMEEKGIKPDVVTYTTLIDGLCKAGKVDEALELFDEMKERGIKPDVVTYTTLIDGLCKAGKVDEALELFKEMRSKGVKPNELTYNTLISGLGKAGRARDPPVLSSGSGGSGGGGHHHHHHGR

NL_v2_PPR22 = biological target: T2, NL_v2_PPR22 (Artificial Sequence); assay: ELONA; RPB-ELISA; conditions: tags: N-term luciferase, C-term 6xHis; label: 5'-biotin
T2 chain: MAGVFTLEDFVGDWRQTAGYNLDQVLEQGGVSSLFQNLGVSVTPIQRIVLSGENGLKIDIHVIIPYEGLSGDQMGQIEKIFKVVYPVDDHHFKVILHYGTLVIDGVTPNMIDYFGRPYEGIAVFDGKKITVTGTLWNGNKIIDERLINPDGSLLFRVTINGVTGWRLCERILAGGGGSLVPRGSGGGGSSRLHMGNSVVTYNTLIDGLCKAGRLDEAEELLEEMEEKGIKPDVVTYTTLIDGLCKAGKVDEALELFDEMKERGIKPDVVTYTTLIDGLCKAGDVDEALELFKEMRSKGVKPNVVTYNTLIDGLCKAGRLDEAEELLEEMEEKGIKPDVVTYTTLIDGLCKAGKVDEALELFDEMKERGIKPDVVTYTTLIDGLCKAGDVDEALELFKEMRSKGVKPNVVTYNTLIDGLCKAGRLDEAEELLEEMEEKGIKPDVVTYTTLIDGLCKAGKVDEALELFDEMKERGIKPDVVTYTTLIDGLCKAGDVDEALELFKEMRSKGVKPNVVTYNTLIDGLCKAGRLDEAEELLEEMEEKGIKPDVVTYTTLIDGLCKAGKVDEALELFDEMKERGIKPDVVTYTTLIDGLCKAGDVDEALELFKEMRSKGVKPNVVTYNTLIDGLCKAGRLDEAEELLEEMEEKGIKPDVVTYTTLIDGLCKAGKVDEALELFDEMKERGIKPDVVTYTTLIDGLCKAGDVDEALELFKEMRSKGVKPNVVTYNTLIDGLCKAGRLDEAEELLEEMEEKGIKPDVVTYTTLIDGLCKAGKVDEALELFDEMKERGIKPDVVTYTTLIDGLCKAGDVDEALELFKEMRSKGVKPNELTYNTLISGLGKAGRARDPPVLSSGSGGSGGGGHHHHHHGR

[1] = biological target: MS2 coat protein (NL_MS2_HIS) (UniProt P03612 SEQ:194-322); assay: ELONA; RPB-ELISA; non-target RNA; conditions: tags: N-term luciferase, C-term 6xHis; chain copies: 2; label: 5'-biotin
Sequence of MS2 coat protein (NL_MS2_HIS) (P03612 2-130): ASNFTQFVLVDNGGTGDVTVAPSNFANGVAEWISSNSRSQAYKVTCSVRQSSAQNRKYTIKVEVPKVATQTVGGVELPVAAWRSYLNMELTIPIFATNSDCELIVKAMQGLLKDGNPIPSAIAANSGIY

v3.1_PPR24 = biological target: T3, v3.1_PPR24 (Artificial Sequence); assay: ELONA; RPB-ELISA; conditions: tags: luciferase fusion; label: 5'-biotin
T3 chain: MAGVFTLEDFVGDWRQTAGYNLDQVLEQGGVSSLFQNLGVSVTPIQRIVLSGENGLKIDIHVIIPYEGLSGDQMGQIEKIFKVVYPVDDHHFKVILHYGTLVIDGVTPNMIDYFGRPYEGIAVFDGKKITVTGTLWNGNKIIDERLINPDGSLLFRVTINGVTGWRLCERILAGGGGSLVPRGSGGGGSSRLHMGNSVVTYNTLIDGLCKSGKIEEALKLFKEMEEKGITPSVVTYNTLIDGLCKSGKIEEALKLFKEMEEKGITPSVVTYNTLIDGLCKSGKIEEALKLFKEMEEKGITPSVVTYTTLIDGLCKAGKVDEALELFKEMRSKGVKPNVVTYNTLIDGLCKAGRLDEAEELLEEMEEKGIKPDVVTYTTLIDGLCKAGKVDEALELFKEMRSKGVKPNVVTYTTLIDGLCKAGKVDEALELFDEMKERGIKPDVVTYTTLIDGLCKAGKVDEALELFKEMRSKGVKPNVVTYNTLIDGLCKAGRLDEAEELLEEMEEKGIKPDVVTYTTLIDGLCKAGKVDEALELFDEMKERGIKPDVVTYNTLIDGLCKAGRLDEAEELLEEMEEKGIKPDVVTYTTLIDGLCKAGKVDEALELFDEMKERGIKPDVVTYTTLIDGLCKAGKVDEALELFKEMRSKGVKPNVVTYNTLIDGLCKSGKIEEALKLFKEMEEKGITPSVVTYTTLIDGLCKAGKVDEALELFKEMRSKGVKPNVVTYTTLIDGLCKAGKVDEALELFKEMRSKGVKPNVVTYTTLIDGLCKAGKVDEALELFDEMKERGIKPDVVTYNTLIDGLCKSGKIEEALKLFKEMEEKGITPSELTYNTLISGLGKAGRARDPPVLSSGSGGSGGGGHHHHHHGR

v3.1_PPR23 = biological target: T4, v3.1_PPR23 (Artificial Sequence); assay: ELONA; RPB-ELISA; conditions: tags: luciferase fusion; label: 5'-biotin
T4 chain: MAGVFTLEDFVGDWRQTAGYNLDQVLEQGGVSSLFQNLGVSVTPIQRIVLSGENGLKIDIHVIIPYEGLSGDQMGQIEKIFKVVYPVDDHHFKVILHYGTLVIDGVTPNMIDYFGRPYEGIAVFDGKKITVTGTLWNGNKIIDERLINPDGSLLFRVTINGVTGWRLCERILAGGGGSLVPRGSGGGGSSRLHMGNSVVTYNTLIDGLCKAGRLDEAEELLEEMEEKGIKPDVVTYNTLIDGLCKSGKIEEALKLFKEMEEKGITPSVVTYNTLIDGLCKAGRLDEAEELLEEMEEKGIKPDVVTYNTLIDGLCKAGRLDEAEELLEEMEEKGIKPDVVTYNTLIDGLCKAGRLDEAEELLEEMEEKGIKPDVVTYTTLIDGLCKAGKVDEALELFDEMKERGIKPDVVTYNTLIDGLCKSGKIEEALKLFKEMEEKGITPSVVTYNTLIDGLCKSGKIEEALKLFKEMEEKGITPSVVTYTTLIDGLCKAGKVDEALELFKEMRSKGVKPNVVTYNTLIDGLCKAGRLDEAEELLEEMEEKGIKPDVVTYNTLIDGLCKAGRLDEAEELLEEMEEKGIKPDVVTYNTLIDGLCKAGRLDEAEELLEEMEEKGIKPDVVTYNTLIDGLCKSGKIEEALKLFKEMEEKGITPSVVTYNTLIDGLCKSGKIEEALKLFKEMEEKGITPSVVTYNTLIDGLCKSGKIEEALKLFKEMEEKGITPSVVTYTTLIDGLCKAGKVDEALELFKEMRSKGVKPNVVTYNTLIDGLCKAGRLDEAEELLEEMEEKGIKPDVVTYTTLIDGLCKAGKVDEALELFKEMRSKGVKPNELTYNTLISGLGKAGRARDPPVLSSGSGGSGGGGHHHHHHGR

NL_v2_PPR23 = biological target: T5, NL_v2_PPR23 (Artificial Sequence); assay: ELONA; RPB-ELISA; conditions: tags: N-term luciferase, C-term 6xHis; label: 5'-biotin
T5 chain: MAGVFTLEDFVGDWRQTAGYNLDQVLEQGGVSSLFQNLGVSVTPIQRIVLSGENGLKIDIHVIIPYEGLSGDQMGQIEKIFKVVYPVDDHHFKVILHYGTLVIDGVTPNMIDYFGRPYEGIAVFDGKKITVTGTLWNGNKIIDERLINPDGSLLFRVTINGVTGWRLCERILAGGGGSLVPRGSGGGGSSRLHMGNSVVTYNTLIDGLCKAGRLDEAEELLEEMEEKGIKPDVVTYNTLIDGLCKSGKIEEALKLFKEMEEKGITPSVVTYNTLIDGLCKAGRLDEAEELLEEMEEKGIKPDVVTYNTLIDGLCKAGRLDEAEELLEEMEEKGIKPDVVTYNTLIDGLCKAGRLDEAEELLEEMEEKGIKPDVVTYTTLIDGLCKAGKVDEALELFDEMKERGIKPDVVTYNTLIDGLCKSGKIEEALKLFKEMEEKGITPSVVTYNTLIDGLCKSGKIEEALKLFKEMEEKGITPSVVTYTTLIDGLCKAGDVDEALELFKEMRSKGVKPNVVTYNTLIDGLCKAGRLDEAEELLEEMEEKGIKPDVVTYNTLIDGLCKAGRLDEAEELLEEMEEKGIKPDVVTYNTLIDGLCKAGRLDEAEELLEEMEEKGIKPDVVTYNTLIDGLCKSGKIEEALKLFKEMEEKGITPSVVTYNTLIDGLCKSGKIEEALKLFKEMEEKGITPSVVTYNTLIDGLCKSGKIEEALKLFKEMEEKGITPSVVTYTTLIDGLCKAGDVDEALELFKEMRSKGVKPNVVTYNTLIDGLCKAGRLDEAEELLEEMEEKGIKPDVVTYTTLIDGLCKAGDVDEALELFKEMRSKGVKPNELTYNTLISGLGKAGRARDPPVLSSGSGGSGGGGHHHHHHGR

B1: RNA_22 (ssRNA)
RNA: GACAUGCUGAUGAUGAUGAUGAUGAGACUG
Question: With B1 as the binder, how does the binding signal (v3.1_PPR22) read?
Answer: 5.5e+07 luminescence

Question: And the binding signal (NL_v2_PPR22)?
Answer: 5.6e+07 luminescence

B2: RNA_51 (ssRNA)
RNA: GACAUGCUGGUGUAUCUUGUCUUUAGACUG
Question: Does B2 bind [1]?
Answer: no binding

B3: RNA_24 (ssRNA)
RNA: GACAUGCCCCAUAGAUGUGACAAGCGACUG
Question: Which binding signal (v3.1_PPR24) does the source give for B3 here?
Answer: 5.5e+07 luminescence

B4: RNA_23 (ssRNA)
RNA: GACAUGCUCUUUGCCAUUUCCCAUAGACUG
Question: What does the source list for B4?
Answer: binding signal (v3.1_PPR23): 5.3e+07 luminescence; binding signal (NL_v2_PPR23): 2.6e+07 luminescence
